Positions count from the first letter of the chain named. Numbers in names are those of the source.
Columns and labels:
[1] = molecular target: mouse Slo1 (mSlo1) BK channel α subunit, mbr5 splice variant (mouse)
[2] = molecular target: mouse Slo1 (mSlo1) BK channel α subunit, mbr5 splice variant (mouse); remark: listed apart in the source

B1: human BK channel β2 subunit C1S (C84S) (natural protein)
chain: MFIWTSGRTSSSYRHDEKRNIYQKIRDHDLLDKRKTVTALKAGEDRAILLGLAMMVCSIMMYFLLGITLLRSYMQSVWTEESQSTLLNASITETFNCSFSCGPDCWKLSQYPCLQVYVNLTSSGEKLLLYHTEETIKINQKCSYIPKCGKNFEESMSLVNVVMENFRKYQHFSCYSDPEGNQKSVILTKLYSSNVLFHSLFWPTCMMAGGVAIVAMVKLTQYLSLLCERIQRINR
- unbinding probability (q), from the non-inactivating offset of currents, inside-out patches of HEK293 cells, 10 μM Ca2+ [1]: 0.48
- experimental rectification ratio Rβ2* of mSlo1+β2(C1S), not corrected for unbinding [2]: 1.22

B2: human BK channel β2 subunit C2S (C97S) (natural protein)
chain: B1 chain with S84C, C97S
- unbinding probability (q), from the non-inactivating offset of currents, inside-out patches of HEK293 cells, 10 μM Ca2+ [1]: 0.09
- experimental rectification ratio Rβ2* of mSlo1+β2(C2S), not corrected for unbinding [2]: 1.43

B3: human BK channel β2 subunit C3S (C101S) (natural protein)
chain: B1 chain with S84C, C101S
- unbinding probability (q), from the non-inactivating offset of currents, inside-out patches of HEK293 cells, 10 μM Ca2+ [1]: 0.09

B4: human BK channel β2 subunit C4S (C105S) (natural protein)
chain: B1 chain with S84C, C105S
- unbinding probability (q), from the non-inactivating offset of currents, inside-out patches of HEK293 cells, 10 μM Ca2+ [1]: 0.08

B5: human BK channel β2 subunit C5S (C113S) (natural protein)
chain: B1 chain with S84C, C113S
- unbinding probability (q), from the non-inactivating offset of currents, inside-out patches of HEK293 cells, 10 μM Ca2+ [1]: 0.66

B6: human BK channel β2 subunit C6S (C142S) (natural protein)
chain: B1 chain with S84C, C142S
- unbinding probability (q), from the non-inactivating offset of currents, inside-out patches of HEK293 cells, 10 μM Ca2+ [1]: 0.41

B7: human BK channel β2 subunit C7S (C148S) (natural protein)
chain: B1 chain with S84C, C148S
- unbinding probability (q), from the non-inactivating offset of currents, inside-out patches of HEK293 cells, 10 μM Ca2+ [1]: 0.08

B8: human BK channel β2 subunit C8S (C174S) (natural protein)
chain: B1 chain with S84C, C174S
- unbinding probability (q), from the non-inactivating offset of currents, inside-out patches of HEK293 cells, 10 μM Ca2+ [1]: 0.38

B9: human BK channel β2 subunit (KCNMB2), wild type (natural protein)
chain: B1 chain with S84C
- unbinding probability (q), from the non-inactivating offset of currents, inside-out patches of HEK293 cells, 10 μM Ca2+ [1]: 0.07
